Source: publication PMC9834170 (Cell Reports Medicine, 2023)

B1: nanobody S43 (VHH)
VHH: QVQLQESGGGLVQPGGSLRLTCAPSGFTLDYYAIGWFRQAPGKEREGVSCISSNNSTYYADSVKGRFTISRDNAKNTVYLQMNSLKPEDTAVYYCAAEPDYSGVYYYTCGWTDFGSWGQGTQVTVSS
B2: nanobody R14 (VHH)
VHH: QVQLQESGGGLVQPGGSLRLSCAVSGFTLDYYAIGWFRQAPGKEREGVSCISSSDGSTSYADSVKGRFTISRDNAKNTVYLQMNSLKPEDTALYYCAATPATYYSGRYYYQCPAGGMDYWGQGTQVTVSS

Experiments:
[1] = biological target: T1, SARS-CoV-2 prototype RBD with human IgG Fc-tag (SARS-CoV-2, UniProt P0DTC2); assay: SPR
[2] = biological target: T1, SARS-CoV-2 prototype RBD with human IgG …; assay: cell-based or functional assay

Binder | Kd [1] [nM] | IC50 of neutralization of live SARS-CoV-2 in Vero cells (blocks S with ACE2) [2] [nM] | IC50 of neutralization of live SARS-CoV-2 in Vero cells (blocks RBD with hACE2) [2] [nM]
B1 | 0.18 | 40.7 | –
B2 | – | – | 1.3
